Blank lines part the entries; values can stand above or below the binder they belong to. Where no end group is shown, it is not given here.
Columns and labels:
[1] = biological target: T1, PEM peptide (human); test: phage panning on PEM peptide, R26 library, acid eluted
T1 peptide: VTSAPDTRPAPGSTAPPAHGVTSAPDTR
Method: (§1) A peptide comprising this sequence was synthesized and used to isolate abtides from TSAR peptide libraries by methods analogous to those described above. In these experiments, the specific TSAR libraries used were R26, D38 and DC43. See FIGS. 10-12 for description of these libraries. Phage bound to PEM were eluted by either standard acid elution methods, stringent acid elution methods where phage were incubated with the PEM peptide for only 10 minutes prior to washing and elution, or were eluted using excess PEM peptide. Phage from each library were isolated that express peptides capable of binding to PEM.

[2] = biological target: T1, PEM peptide; test: phage panning on PEM peptide, DC43 library, acid eluted
Method: as §1

[3] = biological target: T1, PEM peptide; test: phage panning on PEM peptide, D38 library, stringent acid elution
Method: as §1

[4] = biological target: T1, PEM peptide; test: phage panning on PEM peptide, D38 library, acid eluted
Method: as §1

[5] = biological target: T2, mimetope peptide 7E11-9.5 (not fully specified); test: phage panning of TSAR-9 library on plate-bound 7E11-9.5 peptide
T2 peptide: LYANPGMYSRLHSPA
Method: Next, the mimetope peptide was used to isolate abtides from a peptide library. Fifty to one hundred microliters of the solution of this peptide was used to coat the wells of a 96-well plate, the wells were blocked with 0.5% BSA in PBS, and the wells were used for screening. An aliquot of the TSAR-9 random phage library (containing approximately 3×10¹⁰ phage particles) was used as in the initial screening, and 4 rounds of screening were performed. After the first two rounds, the phage were amplified. Two more rounds of screening were then performed. By this procedure, phage from the TSAR-9 library that expressed peptides capable of binding to the 7E11-9.5 mimetope peptide were identified and isolated. The peptides containing the binding domains of these phage are abtides and were discovered to mimic the binding specificities of monoclonal antibody 7E11-C5. These abtides are termed “7E11-C5 abtides.”

[6] = biological target: T3, biotinylated 7E11-9.5 mimetope peptide (not fully specified (N-terminus); printed as Biotin-LYANPGMYSRLHSPA-NH2); test: dot blot, synthetic abtide spotted on nitrocellulose, biotinylated mimetope in solution
T3 peptide: LYANPGMYSRLHSPA-NH2
Method: In some cases, these abtides were used in a dot blot experiment. In those cases, 1 μL of a 1 mg/mL solution of the 38-residue abtides was spotted onto nitrocellulose (0.2 μm or 0.45 μm, Schleicher & Schuell, Keene, NH) strips or circles. After drying (about 1/2 hour), the nitrocellulose was blocked for 1 hour in a solution of 1% BSA in PBS. The nitrocellulose was then allowed to incubate in approximately 5 mL of a solution of 0.1 mg/mL of a biotinylated 7E11-9.5 mimetope peptide (biotin-[…]). This mimetope peptide was one of those described in Section 6.1.1 above that were synthesized based upon the nine peptides that were identified in the screening of Section 6.1.1 above. After an hour, the nitrocellulose was washed approximately 5 times with a solution of 1% BSA in PBS. A 1:2000 dilution of Extravidin-Alkaline Phosphatase (4,250 units/mL) (Sigma, St. Louis, Mo.) in PBS was then added and allowed to incubate for 1 hour, after which the nitrocellulose was again washed extensively. Finally, a solution of 5-bromo-4-chloro-3-indolyl phosphate (0.15 mg/mL) and nitro blue tetrazolium (0.3 mg/mL) (Sigma, St Louis, Mo.) (BCIP/NBT) was added as an enzyme substrate. Color was allowed to develop […].
In FIG. 4, the 7E11-C5 abtides known as clone 14, clone 17, clone 15, clone 16, and clone 13 were tested for their ability to bind the biotinylated 7E11-9.5 mimetope peptide. Also tested, as a positive control, was the monoclonal antibody 7E11-C5. 7E11-C5 was spotted onto the region marked 351 in FIG. 4.

[7] = biological target: T1, PEM peptide; test: phage ELISA on PEM
[8] = biological target: T1, PEM peptide; test: phage panning on PEM peptide, R26 library, eluted with excess PEM peptide
Method: as §1

[9] = biological target: T1, PEM peptide; test: phage panning on PEM peptide, DC43 library, eluted with excess PEM peptide
Method: as §1

[10] = biological target: T1, PEM peptide; test: phage panning on PEM peptide, DC43 library, stringent acid elution
Method: as §1

Binder: SFMDYFFHTPEPKPAGYPNAYTDPKHPA (acid eluted) [A15]
binding result [1]: binds

Binder: GSFESARGVTCIGNHSIGAHGCGPLRSYASFNRGSGRRH (acid eluted) [V22]
binding result [2]: binds

Binder: YSATLWDQFGSRQVELWSNRHASSALPFASRASVLGSR (stringent acid elution) [V40]
binding result [3]: binds

Binder: VQLDDTSPRASGQETSQSEYDARPLLSKFAIPRPWSR (acid eluted) [V21]
binding result [4]: binds

B1: 7E11-C5 abtide clone 17 (peptide)
peptide: DLSRNLDFGRFLLYNAYVPGFTPTFISLTAEHLSSPKG
notes: tested afterwards as synthetic 38-residue peptide
binding result [5]: binds | binding result [6]: binds

Binder: PLTSGSSSEYRNRDDCPVYKYATNCPRLNFSPSRYSPF (stringent acid elution) [V45]
binding result [3]: binds

Binder: SSSIFDYAPFSWGSAGLSNSSINVFERS (acid eluted) [A54]
binding result [1]: binds

Binder: IDSSKNRISGTGYLSFPHIRHANRRHMADDSNLAPGPS (acid eluted) [V1]
binding result [4]: binds

Binder: SRDDIFTGGPLVLFRGSKTSNHDVHSMR (eluted with excess PEM peptide) [P26]
binding result [8]: binds

Binder: LPRPFDDASWKLRAVKESPDGCGFGSPLLFPPYSGLPTFSSCD (acid eluted) [MA-21]
binding result [2]: binds

Binder: VFRRTARSSRPIGATVFPWYGCGNSNDETLPHHDSPPSFFLGA (eluted with excess PEM peptide) [MP-22]
binding result [9]: binds

Binder: GSASSCFPNFTARGVTVGFFGCGSPAHPAAPRVLNPATDFPAP (eluted with excess PEM peptide) [MP-2]
binding result [9]: binds

Binder: ILGWPFLTGLGDSTVHPRGRKGTDPS (eluted with excess PEM peptide) [P24]
binding result [8]: binds

B2: 7E11-C5 abtide clone 14 (peptide)
peptide: GIINANDPLPFWFMSPYTPGPAPIDINASRALVSNESG
notes: tested afterwards as synthetic 38-residue peptide (dot blot, ELISA, sandwich assay)
binding result [5]: binds | binding result [6]: binds

Binder: SLGLPWIDVFGRSSAEPWPFGRTNLPRS (acid eluted) [A39]
binding result [1]: binds

B3: MP-1 (peptide)
peptide: GAPVWRGNPRWRGPGGFKWPGCGNGPMCNTFTPARGGSRNNGP
notes: eluted with excess PEM peptide; also called MPI; PEM abtide MP-1
binding result [9]: binds

Binder: GHSNYCFVSTLGMPIVGFPSINARGLIHYGGSDPRLAA [7E11-C5 abtide clone 16]
binding result [5]: binds

Binder: RCSPIWGISYPFGLLSSNPGVCHSSDAETNIRNDILTT [7E11-C5 abtide clone 13]
binding result [5]: binds

Binder: EEKQGGRWSTMMPRPWCHEGGCGFLYYDAMTKPKTPPIMRTAA (acid eluted) [MA-8]
binding result [2]: binds

Binder: DQIGSRPQTTSRSISGSWWENAKTLWQQDYAFSAPNAA (acid eluted) [MA-32]
binding result [4]: binds

Binder: SVHGAFLDSFFPWAADGPHGRGRLTSF (acid eluted) [A16]
binding result [1]: binds

Binder: NTCWTDLFWHGLPGGDLPRDGCGLPSELTTHPSRERRDASEN [MA-13]
binding result [9]: binds

Binder: WSIGTHTGPEGKFRIPCDRSGCGGTTLTHGGLNSSPTGQHERP (stringent acid elution) [V44]
binding result [10]: binds

Binder: STCIGAEGEWKSFHNFLQCRDATSTSSSTLDPTALRFG (stringent acid elution) [V27]
binding result [3]: binds

Next, values leading:

binding result [7]: no binding
Binder: QARVSMAISCRSGPSDLMHQGCGYGPRCNPDTTDSGGSHTNTP [E49]

binding result [7]: no binding
Binder: GDPECRGKPRGRWTGSLACTGCGNGPNSKICTRARGVSRNKGP [E60]

binding result [10]: binds
Binder: NVMWSSSKAGIRDCSQVPPGGCGPVNRHRASPPLTPFRHGSIR (stringent acid elution) [V4]

binding result [5]: binds | binding result [6]: binds
B4: 7E11-C5 abtide clone 15 (peptide)
peptide: CGRAYCLSGNYNIFGALFPGVSTPYADVGHDDAQSWRR
notes: as for B1

binding result [10]: binds
Binder: DPCEDGYWLSSVGRAGASIRGCGAIRRSSRTLTAEYSTRASNH (stringent acid elution) [V39]

binding result [10]: binds
Binder: GSKRSCWGTTISNYFRPVPEGCGSASSINPNTNTGRLPSLHRQ (stringent acid elution) [V10]

binding result [4]: binds
Binder: LSDAWGNFTTSYRDSAGFPSHAMTTSQGGKRNHASRFP (acid eluted) [V23]

binding result [10]: binds
Binder: SSASSGCLGRAEHLDLDSVWGCGSQADMSRRYSPWYGRPRTGV (stringent acid elution) [V7]

binding result [3]: binds
Binder: GDAYGGIFSRPRQGLADSYIHASYTGKHFFRGPRPPTR (stringent acid elution) [V32]

binding result [8]: binds
Binder: SIPSFSMWLNQLGSAALPSKGNSQDRSD (eluted with excess PEM peptide) [P49]

binding result [8]: binds
Binder: RAELVNWYEWFHVTAEAETPVINSHNMT (eluted with excess PEM peptide) [P6]

binding result [7]: no binding
Binder: STPGCSGYSGSGDPRCLTCTACGNGHTRKTLTPAHGRSTHKEP [E72]

— patent publication US20040229289A1, “Antigen binding peptides (abtides) from peptide libraries” (Cytogen Corporation, priority 1994, published 2004)
